# From IntAct's records for PubMed 11713520
# B1: Auxin-responsive protein IAA17 (Arabidopsis thaliana (Mouse-ear cress)), P93830 (parent)
# chain: MMGSVELNLRETELCLGLPGGDTVAPVTGNKRGFSETVDLKLNLNNEPANKEGSTTHDVVTFDSKEKSACPKDPAKPPAKAQVVGWPPVRSYRKNVMVSCQKSSGGPEAAAFVKVSMDGAPYLRKIDLRMYKSYDELSNALSNMFSSFTMGKHGGEEGMIDFMNERKLMDLVNSWDYVPSYEDKDGDWMLVGDVPWPMFVDTCKRLRLMKGSDAIGLAPRAMEKCKSRA
# partner: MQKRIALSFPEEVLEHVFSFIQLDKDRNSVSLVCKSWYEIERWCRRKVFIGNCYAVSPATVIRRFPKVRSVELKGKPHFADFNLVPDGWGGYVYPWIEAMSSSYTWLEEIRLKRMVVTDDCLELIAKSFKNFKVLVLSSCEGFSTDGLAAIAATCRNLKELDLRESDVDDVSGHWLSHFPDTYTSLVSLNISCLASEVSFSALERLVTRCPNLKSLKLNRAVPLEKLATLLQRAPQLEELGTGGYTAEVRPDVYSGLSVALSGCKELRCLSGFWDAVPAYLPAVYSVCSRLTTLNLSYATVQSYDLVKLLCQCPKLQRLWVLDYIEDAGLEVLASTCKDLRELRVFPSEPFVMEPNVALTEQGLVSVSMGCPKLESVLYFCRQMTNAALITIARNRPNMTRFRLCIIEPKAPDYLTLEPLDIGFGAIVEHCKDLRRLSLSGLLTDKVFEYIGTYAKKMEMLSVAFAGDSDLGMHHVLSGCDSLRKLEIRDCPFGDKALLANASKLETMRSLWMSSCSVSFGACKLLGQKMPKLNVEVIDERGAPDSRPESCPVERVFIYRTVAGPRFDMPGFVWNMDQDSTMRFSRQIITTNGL
# Variants of: B1
# Details: with tir1_arath TIR1, Q570C0
row,effect of a mutation on the interaction,Variant
1,decreasing interaction,P88L
